Several values for one entry are separate records, joined by “and”; a condition that tells them apart may be missing. Equal values may be shown once.
Assays:
[1] = target: Cys to Ser mutant 2CPB C53S/C175S, tag-free (Arabidopsis thaliana); experiment: nonreducing SDS/PAGE (redox shift visualization); 1 μM (Fig 1) or 1.5 μM (Fig S2) recombinant 2CP incubated with/without 1 mM GSH (50 mM Tris-HCl pH 7.5, 25°C, 30 min), nonreducing SDS/PAGE, Coomassie stain (anti-GSH Western blot in Fig S2); oligomer size read from gel mobility; self-association
[2] = target: the molecule itself; experiment: nonreducing SDS/PAGE (redox shift visualization); 1 μM tag-free 2CP incubated with 1 mM GSH and 0.1% (vol/vol) Triton X-100 (partial denaturation), nonreducing SDS/PAGE, Coomassie stain; self-association
[3] = target: the molecule itself; experiment: nonreducing SDS/PAGE (redox shift visualization); 1 μM (Fig 1) or 1.5 μM (Fig S2) recombinant 2CP incubated with/without 1 mM GSH (50 mM Tris-HCl pH 7.5, 25°C, 30 min), nonreducing SDS/PAGE, Coomassie stain (anti-GSH Western blot in Fig S2); oligomer size read from gel mobility; self-association
[4] = target: the molecule itself; experiment: nonreducing SDS/PAGE (redox shift visualization); 1.5 μM 2CP^GS incubated with CYP20-3 (0-5 μM) at 42°C for 15 min, nonreducing SDS/PAGE, Coomassie stain and anti-GSH Western blot; self-association of the 2CP after the treatment
[5] = target: the molecule itself; experiment: nonreducing SDS/PAGE with Western blot of plant extracts; total leaf protein extracts of Arabidopsis (WT Col-0, 2cpa, 2cpb, cyp20-3; untreated or 0, 3, 6 h post wounding), nonreducing SDS/PAGE, Western blot with anti-2CPA or anti-GSH antibody; oligomer size read from gel mobility

Cys to Ser mutant 2CPB C53S/C175S, tag-free (enzyme)
stoichiometry N [1]: 10

B1: GSH-glutathionylated 2-Cys peroxiredoxin A (2CPA^GS), tag-free recombinant (enzyme, Arabidopsis thaliana)
chain: GSHMKAQADDLPLVGNKAPDFEAEAVFDQEFIKVKLSDYIGKKYVILFFYPLDFTFVCPTEITAFSDRHSEFEKLNTEVLGVSVDSVFSHLAWVQTDRKSGGLGDLNYPLISDVTKSISKSFGVLIHDQGIALRGLFIIDKEGVIQHSTINNLGIGRSVDETMRTLQALQYIQENPDEVCPAGWKPGEKSMKPDPKLSKEYFSAI
modifications: S-glutathionylated by GSH (mixed disulfide GS-S on a Cys; the discussion names the resolving Cys, CR^53)
notes: four nonnative residues (Gly, Ser, His, Met) left at the N terminus after thrombin removal of the His-tag; C53 is C119 and C175 is C241 in Q96291; source: E. coli BL21 (DE3), purified (Ni-NTA), His-tag removed with thrombin, incubated with GSH; not shown: His-tag, N-terminal, cleaved
stoichiometry N [2]: 10 | stoichiometry N [3]: 2

B2: 2-Cys peroxiredoxin A (2CPA), tag-free recombinant, not glutathionylated (enzyme, Arabidopsis thaliana)
chain: GSHMKAQADDLPLVGNKAPDFEAEAVFDQEFIKVKLSDYIGKKYVILFFYPLDFTFVCPTEITAFSDRHSEFEKLNTEVLGVSVDSVFSHLAWVQTDRKSGGLGDLNYPLISDVTKSISKSFGVLIHDQGIALRGLFIIDKEGVIQHSTINNLGIGRSVDETMRTLQALQYIQENPDEVCPAGWKPGEKSMKPDPKLSKEYFSAI
notes: four nonnative residues (Gly, Ser, His, Met) left at the N terminus after thrombin removal of the His-tag; C53 is C119 and C175 is C241 in Q96291; also called 2-CysPRX A; 2CP isoform A; source: E. coli BL21 (DE3), purified (Ni-NTA), His-tag removed with thrombin; not shown: His-tag, N-terminal, cleaved
stoichiometry N [4]: 2

B3: GSH-glutathionylated 2-Cys peroxiredoxin B (2CPB^GS), tag-free recombinant (enzyme, Arabidopsis thaliana)
chain: GSHMKAQADDLPLVGNKAPDFEAEAVFDQEFIKVKLSEYIGKKYVILFFYPLDFTFVCPTEITAFSDRYEEFEKLNTEVLGVSVDSVFSHLAWVQTDRKSGGLGDLNYPLVSDITKSISKSFGVLIPDQGIALRGLFIIDKEGVIQHSTINNLGIGRSVDETMRTLQALQYVQENPDEVCPAGWKPGEKSMKPDPKLSKEYFSAI
modifications: S-glutathionylated by GSH (mixed disulfide GS-S on a Cys)
notes: four nonnative residues (Gly, Ser, His, Met) left at the N terminus after thrombin removal of the His-tag; C53 is C126 and C175 is C248 in Q9C5R8; source: E. coli BL21 (DE3), purified (Ni-NTA), His-tag removed with thrombin, incubated with GSH; not shown: His-tag, N-terminal, cleaved
stoichiometry N [3]: 20 | stoichiometry N [4]: 10

B4: endogenous GSH-glutathionylated 2CPA (2CPA^GS) in Arabidopsis leaf extracts (enzyme, UniProt Q96291 66-266, looked up)
chain: KAQADDLPLVGNKAPDFEAEAVFDQEFIKVKLSDYIGKKYVILFFYPLDFTFVCPTEITAFSDRHSEFEKLNTEVLGVSVDSVFSHLAWVQTDRKSGGLGDLNYPLISDVTKSISKSFGVLIHDQGIALRGLFIIDKEGVIQHSTINNLGIGRSVDETMRTLQALQYIQENPDEVCPAGWKPGEKSMKPDPKLSKEYFSAI
modifications: S-glutathionylated (as the paper names it: 2CPA^GS)
notes: 2-Cys peroxiredoxin A (2CPA), Arabidopsis thaliana, At3g11630, endogenous plastid protein; Bands in WT extracts detected with 2CP antibody and put down to 2CPA^GS by the authors; source: endogenous, Arabidopsis (Col-0) leaf total protein extract
stoichiometry N [5]: 2

B5: His-tagged GSH-glutathionylated 2-Cys peroxiredoxin B (His-tagged 2CPB^GS) (enzyme, Arabidopsis thaliana, UniProt Q9C5R8 73-273, looked up)
chain: KAQADDLPLVGNKAPDFEAEAVFDQEFIKVKLSEYIGKKYVILFFYPLDFTFVCPTEITAFSDRYEEFEKLNTEVLGVSVDSVFSHLAWVQTDRKSGGLGDLNYPLVSDITKSISKSFGVLIPDQGIALRGLFIIDKEGVIQHSTINNLGIGRSVDETMRTLQALQYVQENPDEVCPAGWKPGEKSMKPDPKLSKEYFSAI
modifications: S-glutathionylated by GSH (mixed disulfide GS-S on a Cys)
notes: C53 is C126 and C175 is C248 in Q9C5R8; Tagged version cloned BamHI/HindIII into pET28a; source: E. coli BL21 (DE3), purified (Ni-NTA), incubated with GSH
stoichiometry N [3]: 20 and 10

B6: 2-Cys peroxiredoxin B (2CPB), tag-free recombinant, not glutathionylated (enzyme, Arabidopsis thaliana)
chain: GSHMKAQADDLPLVGNKAPDFEAEAVFDQEFIKVKLSEYIGKKYVILFFYPLDFTFVCPTEITAFSDRYEEFEKLNTEVLGVSVDSVFSHLAWVQTDRKSGGLGDLNYPLVSDITKSISKSFGVLIPDQGIALRGLFIIDKEGVIQHSTINNLGIGRSVDETMRTLQALQYVQENPDEVCPAGWKPGEKSMKPDPKLSKEYFSAI
notes: four nonnative residues (Gly, Ser, His, Met) left at the N terminus after thrombin removal of the His-tag; C53 is C126 and C175 is C248 in Q9C5R8; also called 2-CysPRX B; 2CP isoform B; source: E. coli BL21 (DE3), purified (Ni-NTA), His-tag removed with thrombin; not shown: His-tag, N-terminal, cleaved
stoichiometry N [3]: 10 and 20

From article PMC7409537, “CYP20-3 deglutathionylates 2-CysPRX A and suppresses peroxide detoxification during heat stress” (Life Science Alliance, 2020)
